Test results taken from patent US10941182 (Amgen, dated 2021).
Starred links: 1 amine or outer side, 2 acyl side, 3 side chain; linkers in the order of their positions; H or OH if unused. Non-standard residues stand in square brackets, D forms with d. *: point of attachment. Oic = O=C(O)[C@@H]1C[C@@H]2CCCC[C@@H]2N1; Phe(4-Cl) = N[C@@H](Cc1ccc(Cl)cc1)C(=O)O; γGlu = O=C(O)[C@H](CCC(=O)[*:2])N[*:1]; NMeR = CN[C@@H](CCCNC(=N)N)C(=O)O; Tridecanoyl = CCCCCCCCCCCCC(=O)*; Cha = N[C@@H](CC1CCCCC1)C(=O)O; Tle = CC(C)(C)[C@H](N)C(=O)O; β3hS = N[C@@H](CO)CC(=O)O; Nle = CCCC[C@H](N)C(=O)O; AEEA = NCCOCCOCC(=O)O; Aib = CC(C)(N)C(=O)O; BLeu = β-leucine

T1: rat APJ receptor (rat, UniProt Q9JHG3 1-377)
T1 sequence (looked up): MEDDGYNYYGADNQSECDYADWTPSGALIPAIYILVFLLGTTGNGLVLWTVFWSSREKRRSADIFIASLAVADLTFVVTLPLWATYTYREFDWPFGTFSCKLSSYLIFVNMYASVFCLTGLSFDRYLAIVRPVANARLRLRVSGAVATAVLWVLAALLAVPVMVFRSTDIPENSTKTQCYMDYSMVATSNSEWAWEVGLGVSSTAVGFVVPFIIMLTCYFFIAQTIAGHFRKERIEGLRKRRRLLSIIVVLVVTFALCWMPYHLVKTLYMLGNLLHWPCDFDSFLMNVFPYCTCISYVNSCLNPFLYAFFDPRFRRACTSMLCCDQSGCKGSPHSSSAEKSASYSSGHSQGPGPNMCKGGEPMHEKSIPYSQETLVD

T2: human APJ receptor (human, UniProt P35414 1-380)
T2 sequence (looked up): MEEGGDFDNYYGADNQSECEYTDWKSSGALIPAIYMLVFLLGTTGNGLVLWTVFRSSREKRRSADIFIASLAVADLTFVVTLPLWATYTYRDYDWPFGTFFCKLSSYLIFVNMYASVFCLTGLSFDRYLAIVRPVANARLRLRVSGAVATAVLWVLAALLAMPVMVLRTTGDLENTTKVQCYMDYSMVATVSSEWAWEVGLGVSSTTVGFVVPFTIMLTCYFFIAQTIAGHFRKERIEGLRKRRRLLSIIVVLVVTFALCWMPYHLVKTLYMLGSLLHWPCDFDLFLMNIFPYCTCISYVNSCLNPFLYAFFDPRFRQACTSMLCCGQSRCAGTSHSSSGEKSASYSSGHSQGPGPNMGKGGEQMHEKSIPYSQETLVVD


Experiments:
[1] = molecular target: T1, rat APJ receptor; assay: cell-based or functional assay
[2] = molecular target: T2, human APJ receptor; assay: cell-based or functional assay

Row | EC50 Rat APJ Receptor (GTPγS assay) [1] | EC50 Human APJ Receptor (GTPγS assay) [2] | Binder
1 | 3.14 nM | 0.588 nM | Tridecanoyl-[γGlu][AEEA][AEEA][dQ]RP[NMeR][Cha][β3hS]HKG[Oic][Nle][Aib][Phe(4-Cl)]-OH (SMILES CCCCCCCCCCCCC(=O)N[C@@H](CCC(=O)NCCOCCOCC(=O)NCCOCCOCC(=O)N[C@H](CCC(N)=O)C(=O)N[C@@H](CCCNC(=N)N)C(=O)N1CCC[C@H]1C(=O)N(C)[C@@H](CCCNC(=N)N)C(=O)N[C@@H](CC1CCCCC1)C(=O)N[C@@H](CO)CC(=O)N[C@@H](Cc1c[nH]cn1)C(=O)N[C@@H](CCCCN)C(=O)NCC(=O)N1[C@H](C(=O)N[C@@H](CCCC)C(=O)NC(C)(C)C(=O)N[C@@H](Cc2ccc(Cl)cc2)C(=O)O)C[C@@H]2CCCC[C@@H]21)C(=O)O) [Apelin polypeptide SEQ ID NO: 500]
2 | 1.28 nM | 1.49 nM | Tridecanoyl-[γGlu][AEEA][AEEA]QRP[NMeR][Cha]S[Tle]KG[Oic][Nle]P[Phe(4-Cl)]-OH (SMILES CCCCCCCCCCCCC(=O)N[C@@H](CCC(=O)NCCOCCOCC(=O)NCCOCCOCC(=O)N[C@@H](CCC(N)=O)C(=O)N[C@@H](CCCNC(=N)N)C(=O)N1CCC[C@H]1C(=O)N(C)[C@@H](CCCNC(=N)N)C(=O)N[C@@H](CC1CCCCC1)C(=O)N[C@@H](CO)C(=O)N[C@H](C(=O)N[C@@H](CCCCN)C(=O)NCC(=O)N1[C@H](C(=O)N[C@@H](CCCC)C(=O)N2CCC[C@H]2C(=O)N[C@@H](Cc2ccc(Cl)cc2)C(=O)O)C[C@@H]2CCCC[C@@H]21)C(C)(C)C)C(=O)O) [Apelin polypeptide SEQ ID NO: 438]
3 | 10.1 nM | 5.6 nM | Tridecanoyl-[γGlu][AEEA][AEEA]QRP[NMeR][Cha]SH[AMeK]G[Oic][Nle]P[Phe(4-Cl)]-OH [Apelin polypeptide SEQ ID NO: 444]
4 | 0.975 nM | 0.38 nM | Tridecanoyl-[γGlu][AEEA][AEEA][dQ]RP[NMeR][Cha]SAKG[Oic][Nle][Aib][Phe(4-Cl)]-OH (SMILES CCCCCCCCCCCCC(=O)N[C@@H](CCC(=O)NCCOCCOCC(=O)NCCOCCOCC(=O)N[C@H](CCC(N)=O)C(=O)N[C@@H](CCCNC(=N)N)C(=O)N1CCC[C@H]1C(=O)N(C)[C@@H](CCCNC(=N)N)C(=O)N[C@@H](CC1CCCCC1)C(=O)N[C@@H](CO)C(=O)N[C@@H](C)C(=O)N[C@@H](CCCCN)C(=O)NCC(=O)N1[C@H](C(=O)N[C@@H](CCCC)C(=O)NC(C)(C)C(=O)N[C@@H](Cc2ccc(Cl)cc2)C(=O)O)C[C@@H]2CCCC[C@@H]21)C(=O)O) [Apelin polypeptide SEQ ID NO: 530]
5 | 1.4 nM | 0.583 nM | Tridecanoyl-[γGlu][AEEA][AEEA][dQ]RP[NMeR][Cha]SHK[Tle][Oic][Nle][Aib][Phe(4-Cl)]-OH (SMILES CCCCCCCCCCCCC(=O)N[C@@H](CCC(=O)NCCOCCOCC(=O)NCCOCCOCC(=O)N[C@H](CCC(N)=O)C(=O)N[C@@H](CCCNC(=N)N)C(=O)N1CCC[C@H]1C(=O)N(C)[C@@H](CCCNC(=N)N)C(=O)N[C@@H](CC1CCCCC1)C(=O)N[C@@H](CO)C(=O)N[C@@H](Cc1c[nH]cn1)C(=O)N[C@@H](CCCCN)C(=O)N[C@H](C(=O)N1[C@H](C(=O)N[C@@H](CCCC)C(=O)NC(C)(C)C(=O)N[C@@H](Cc2ccc(Cl)cc2)C(=O)O)C[C@@H]2CCCC[C@@H]21)C(C)(C)C)C(=O)O) [Apelin polypeptide SEQ ID NO: 543]
6 | 0.197 nM | 0.169 nM | XXXQRPRLSHKGPXPF ({TDA}[AC4Abu][Aeea][Aeea]QRP[NMeArg][BhLeu]SHKGP[Nle]P[4-Cl-F]{COOH}) [Apelin polypeptide SEQ ID NO: 422]
7 | 1.5 nM | 0.565 nM | Tridecanoyl-[γGlu][AEEA][AEEA]QRP[NMeR][BLeu]SHKG[Oic][Nle]P[Phe(4-Cl)]-OH [Apelin polypeptide SEQ ID NO: 391]
